Data published in patent US20030235534A1, “Methods and compositions for radioimmunotherapy of brain and CNS tumors” (priority 2002, published 2003).
*1 amine or outer side, *2 acyl side, *3 side chain or, on linkers, in order; H or OH if unused. Where a SMILES comes first, the peptide text is derived from it. Side-chain parts run from the residue outwards. [ ]: non-standard residue; d: D form. The star is where a group is joined. DOTA = O=C(O)CN1CCN(CC(=O)O)CCN(CC(=O)*)CCN(CC(=O)O)CC1; NH(2-(imidazol-4-yl)ethyl) = c1ncc(CCN*)[nH]1; Suc = O=C(CCC(=O)[*:2])[*:1]

Key:
glioblastome multiforme = test: Treatment of a brain cancer patient with premixed bispecific antibody-mediated radioimmunotherapy using a beta-emitting radionuclide; conditions: 1:1 molar mixture with bispecific antibody of Example 1; 12 mCi Y-90, 10 mg antibody, into reservoir, 4 days post surgery
Description: A patient with recently-diagnosed glioblastome multiforme in their left hemisphere, which is limited to a focal lesion, undergoes a gross total resection, with placement of a Rickham reservoir and catheter into the surgically-created resection cavity. Placement of the catheter is confirmed by an MRI scan 24 h later. […] The reservoir and catheter are flushed after the antibody injection.

[1] = tested on: inoperable brain tumor in the pons; test: Treatment of a brain cancer patient with pretargeted bispecific antibody-mediated radioimmunotherapy using an alpha-emitting radionuclide (intravenous)
Description: This preparation has an In-111 label to confirm targeting to the brain tumor by gamma camera imaging 24 h later. After two more days, to allow for adequate localization of the bispecific antibody to the tumor and clearance from the body, the Ac-225-IMP 241 of example 7, above, is also injected intravenously, at a dose of 1 mCi.

glioblastoma multiforme = test: Treatment of a brain cancer patient with pretargeted bispecific antibody-mediated radioimmunotherapy using an alpha-emitting radionuclide (hapten into surgical cavity)
[2] = 1 mCi i.v. after 30 mg i.v. humanized anti-tenascin x anti-HSG bispecific antibody, 8 weeks later

NC(=O)[C@H](CCCCNC(=O)CNC(=O)CCC(=O)NCCc1cnc[nH]1)NC(=O)[C@@H](Cc1ccc(O)cc1)NC(=O)[C@H](CCCCNC(=O)CNC(=O)CCC(=O)NCCc1cnc[nH]1)NC(=O)[C@H](Cc1ccccc1)NC(=O)CN1CCN(CC(=O)O)CCN(CC(=O)O)CCN(CC(=O)O)CC1 (90Y complex, metal not drawn) [Y-90-IMP 241] ({DOTA}-FK([Gly-Suc-NH(2-(imidazol-4-yl)ethyl)])[dY]K([Gly-Suc-NH(2-(imidazol-4-yl)ethyl)])-NH2)
tolerability of radioimmunotherapy procedure (glioblastome multiforme): tolerates the radioimmunotherapy procedure well

NC(=O)[C@H](CCCCNC(=O)CNC(=O)CCC(=O)NCCc1cnc[nH]1)NC(=O)[C@@H](Cc1ccc(O)cc1)NC(=O)[C@H](CCCCNC(=O)CNC(=O)CCC(=O)NCCc1cnc[nH]1)NC(=O)[C@H](Cc1ccccc1)NC(=O)CN1CCN(CC(=O)O)CCN(CC(=O)O)CCN(CC(=O)O)CC1 [Ac-225-IMP 241, metal not drawn] ({DOTA}-FK([Gly-Suc-NH(2-(imidazol-4-yl)ethyl)])[dY]K([Gly-Suc-NH(2-(imidazol-4-yl)ethyl)])-NH2)
granulocytes (ANC) and platelets [1, 2]: within the normal range
hematological toxicity [1, 2]: no evidence of hematological toxicity
adverse events from therapy (glioblastoma multiforme; 1 mCi into surgical cavity two days after 30 mg i.v. humanized anti-tenascin x anti-HSG bispecific antibody): does not experience any adverse events

Cn1nnc2c(C(N)=O)ncn2c1=O [temozolomide, reference compound]
additional reduction of the tumor ([1]; temozolomide therapy given three months after the 3-month follow-up of radioimmunotherapy): 25%
tolerability of chemotherapy regimen (glioblastoma multiforme; given after radioimmunotherapy): tolerated well
